Measured values reported in patent US20100124555A1, “Compositions and Methods for Treating Pancreatic Tumors” (UNIVERSITE DE LA MEDITERRANEE, priority 2007, published 2010).

Key:
[1] = system: PANC-1 cells; test: Cell-cycle distribution by propidium iodide flow cytometry, PANC-1; assay type: cell-based, human
[2] = system: E-cadherin, β-catenin in SOJ-6 cells; test: Immunoblotting and immunofluorescence of E-cadherin/β-catenin complex, SOJ-6; assay type: cell-based, human
Protocol: (§1) SOJ-6 cells were grown in 6-well culture plates in RPMI 1640 medium with 10% FCS. At subconfluency, the medium was removed and replaced for 24 hours by fresh RPMI medium with 10% inactivated FCS. SOJ-6 cells were then incubated with mAb16D10 or Cisplatin for 24 hours. At the end of incubation, cells were washed three times with ice-cold PBS (without […] and Mg^++) harvested and pelleted by centrifugation. Pellets were washed twice and lysed at 4° C. in 0.5 ml of lysis buffer (10 mM Tris-HCl pH 7.4, 150 mM NaCl, 1% Triton X-100, 1 mM benzamidine and phosphatase inhibitors). After lysis, homogenates were clarified by centrifugation at 10,000 g for 10 min at 4° C. An aliquot was saved for protein determination using the bicinchoninic acid assay (Pierce, Rockford, Ill.). Proteins (50 μg/lane) in reducing SDS buffer were separated onto 10, 12, or 15% polyacrylamide with 0.1% SDS (according to the molecular weight range of proteins to be separated). After electrophoretic migration, proteins were silver stained. Alternatively, proteins were transferred onto nitrocellulose membranes using a Mini Transblot electrophoretic cell (BioRad, Hercule, Oreg.), and transferred proteins were immunodetected by using appropriate primary and secondary antibodies. After washes, membranes were developed with a chemoluminescent substrate according to the manufacturer's instructions (Roche Diagnostics, Switzerland). In each experiment, a control was included by omitting primary antibodies or by using a non-immune serum.
These molecules might confer to these lipid raft domains the role of signalling. Immunoblottings were performed to examine the expression of E-cadherin and of β-catenin by pancreatic tumoral cells.
Several studies have shown that, in the absence of Wnt signalling, the phosphorylation of residues of β-catenin addressed this protein to degradation by the ubiquitin-dependent proteasome pathway (Aberle et al., 1997 EMBO J. 16(13): 3797-804 and Orford et al., 1997 Biol. Chem. 272(40): 24735-8). […] Furthermore, β-catenin may be regulated by GSK-3β, which itself is activated in cells once treated with mAb16D10 (FIG. 11). […] Lastly, we wanted to determine whether the association of E-cadherin, β-catenin, and 16D10 antigen in the rafts microdomains is required for mAb16D10 to induce apoptosis (FIG. 13).

[3] = system: SOJ-6 cells; test: Cell-cycle distribution by propidium iodide flow cytometry, SOJ-6; assay type: cell-based, human; details: SOJ-6 after mAb16D10 treatment
Protocol: Cells were washed twice using cold PBS 1×/BSA 0.2%/Sodium Azide 0.05% buffer. Staining was performed using the different antibodies during 1H at 4° C. into round 96-well plates using 5×10^4 cells per well. Cells were then washed twice before being incubated with secondary reagents. After two washes, cells were re-suspended before acquisition into PBS1X/Formaldehyde 1%. Stainings were acquired on a FACScan (Becton Dickinson, San Jose, Calif.) and results were analysed using FlowJo Software. SOJ-6 cells pre-treated or not with 5 μg/ml aphidicolin (a reversible inhibitor of eukaryotic nuclear DNA replication, which blocks the cell cycle at early S-phase) for 6 h, were then incubated with mAb16D10 or irrelevant IgM used as a negative control. Cells were released from culture plates with a non-enzymatic cell dissociation solution, washed with PBS^+/+, fixed with 70% ethanol at −20° C. and washed with PBS^+/+. The cells were resuspended in a solution of 400 μg/ml propidium iodide in isoflow buffer and were incubated for 30 min at room temperature as already described [Mi-Lian et al., 2004]. Cell-cycle distribution was detected by flow cytometry and analyzed by Mod Fit software (Verity Software House, Inc., Topsham, Me.). The red fluorescence of single events was recorded using excitation and emission at 488 nm and at 610 nm respectively, to measure the DNA index.
We next wished to know whether mAb16D10-induced apoptosis was due, in part, to the arrest of the cell cycle. Cell cycle distribution of the SOJ-6 cells after treatment was assessed by observing DNA profiles following SOJ-6 cells pre-treated not or with aphidicolin, treated not or with mAb16D10. Each experiment was carried out in triplate. We used a specific DNA marker, Propidium Iodide, to determine the different phases of the cell cycle by flow cytometry. […] Indeed, the shift of cells from the G2/M to the G1/S phase and from the G1/S to the apoptosis was also observed following aphidicolin treatment. […]

[4] = system: SOJ-6 cells; test: Annexin V / PI apoptosis assay; assay type: cell-based, human; details: antibodies 20 μg/ml, tunicamycin 25 or 50 μg/ml
Protocol: SOJ-6 cells (20.10^4 cells per well) were seeded onto 24 wells plates 72H before to start the experiment. Cells were incubated either with 20 μg/ml 16D10 IgM, or 20 μg/ml of a further recombinant 16D10 IgG1 antibody which contained the 16D10 variable regions linked fused to a human IgG1 constant region and human kappa light region for the heavy and light chains respectively, 25 μg/ml Tunicamycin or 50 μg/ml Tunicamycin. The AnnexinV/PI stainings were performed after 24H of culture using the AnnexinV-FITC Apoptosis Detection Kit I (BD Pharmingen) according to the manufacturer instructions. Stainings were acquired on a FACScan (Becton Dickinson, San Jose, Calif.) and results were analysed using FlowJo Software.

[5] = system: living cells in culture; test: Pulse-chase confocal microscopy internalization; assay type: cell-based; details: pulse 30 min at 4° C.; chase 2 h at 37° C.
Protocol: A pulse-chase experiment using confocal microscopy was used to assess the interaction of the IgM 16D10 antibody with living cells in culture. (Pulse: 30 min at 4° C.; Chase: 0 or 2 h at 37° C. in culture medium.) It was observed that virtually all of the mAb was internalized within 2 h. A fraction of the mAbs co-localized with LAMP1.

[6] = system: p53, cyclin D1, GSK-3β in SOJ-6 cells; test: Western blot of cell cycle regulatory proteins; assay type: cell-based, human
Protocol: as §1
The expression of different cell cycle regulatory proteins, specifically p53 and cyclin D1, was next analyzed. […] Since cyclin D1 expression may be directly regulated by GSK-3β (Diehl et al., 1998 Genes Dev. 12(22):3499-511), we next focused on the expression level of this kinase in SOJ-6 cells once challenged with mAb16D10.

B1: 16D10: IgM monoclonal antibody recognizing FAPP/BSDL; producing cells deposited with the CNCM under the number I-3188 (antibody, listed as Mus musculus, V domains shown)
VH: QVQLQQSDAELVKPGASVKISCKASGYTFTDHAIHWVKQKPEQGLEWIGYISPGNDVIKFNEKFKGKATLTADKSSSTAYMQLNSLTSEDSAVYFCKRSEGGVFDYWGQGTTLTVS
VL: NIMMTQSPSSLAVSAGEKVTMSCKSSQSVLYSSNQKNFLAWYQQKPGQSPKLLIYWASTRESGVPDRFTGSGSGTDFTLTISSVQAEDLAVYYCHQYLSSYTFGGGTKLEIK
- effect on the cell cycle [1]: no effect on the cell cycle was observed
- phosphorylation of β-catenin ([2]; SOJ-6): phosphorylated
- expression of β-catenin ([2]; SOJ-6, 25 μg/ml, 24 h): did not induce a significant change in the expression of β-catenin
- E-cadherin protein expression ([2]; SOJ-6, 25 μg/ml, 24 h, versus irrelevant IgM): high E-cadherin protein expression
- localization of β-catenin ([2]; SOJ-6, fluorescence microscopy, plasma membrane in untreated cells): found in the cytosolic compartment
- apoptotic cells [3]: 6%
- cells in G1/S [3]: 96%
- cells in G2/M phase [3]: 4%
- apoptosis by Annexin V and Annexin V/PI staining [4]: induced significant levels of apoptosis
- fraction of mAb internalized [5]: virtually all
- expression of cyclin D1 [6]: decreased that of cyclin D1
- expression of p53 [6]: increased the expression of p53
- expression of total GSK-3β [6]: constant
- phospho-GSK-3β (inactive form) [6]: a decrease in the phospho-GSK-3β
